These results are taken from article PMC8131929 (The Journal of Biological Chemistry, 2021).

The target of this test is RanQ69L(aa1-180)–GTP (UniProt P62826 1-180, Q69L). Put plainly: pull-down.

B1: His–Xpo 4 (exportin 4, Mus musculus) (natural protein)
chain: not shown
In the case of B1, the binding result is “binds”.
